B1: RF-2 human monoclonal antibody to RSV F-protein (antibody, human IgG1, V domains shown)
VH: QVQLQESGPALVKPTQTLTLTCTFSGFSLSTRGMSVNWIRQPPGKALEWLARIDWDDDTFYSASLKTRLSISKDTSKNQVVLRMTNVDPVDTATYFCARASLYDSDSFYLFYHAYWGQGTVVTVSS
VL: DIQMTQSPSSLSASVGDRVTITCRASQSIASYVNWYQQKPGKAPKVLIFASANLVSGVPSRFSGSGSGTVFTLTISNLQPEDFATYFCQQSYTNFSFGQGTKLEIK
notes: Tested as natural human IgG1 kappa, protein A purified from supernatant of the tumor cell line from hu-SPL-SCID mouse #15; The early preparation held at least two antibody populations
B2: RF-1 human monoclonal antibody to RSV F-protein (antibody, human IgG1, V domains shown)
VH: QVQLQESGPVVVKPTETLTLTCTVSGFSLSNPRMGVTWIRQPPGKALEWLGNIFSSDEKSFSPSLKSRLTTSQDTSRSQVVLSLTNVDPVDTATYYCARVGLYDINAYYLYYLDYWGQGTLVTVSS
VL: DIQMTQSPSSLSASVGDRVTITCRAGQRIASYLNWYQHKPGKAPKLLIYAGSNLHRGVPSRFSGGGSGTDFTLTINSLQPEDFATYYCQQAYSTPWTFGPGTKVEIK
notes: Tested as natural human IgG1 kappa, protein A purified from supernatant of the EBV-positive tumor cell line from hu-SPL-SCID mouse #6

Experiments:
[1] = target: F-protein of RSV 18537 (Type B) (respiratory syncytial virus, strain …, UniProt P13843 26-574); assay: cell-based or functional assay
Chain of F-protein of RSV 18537 (Type B) (P13843 26-574): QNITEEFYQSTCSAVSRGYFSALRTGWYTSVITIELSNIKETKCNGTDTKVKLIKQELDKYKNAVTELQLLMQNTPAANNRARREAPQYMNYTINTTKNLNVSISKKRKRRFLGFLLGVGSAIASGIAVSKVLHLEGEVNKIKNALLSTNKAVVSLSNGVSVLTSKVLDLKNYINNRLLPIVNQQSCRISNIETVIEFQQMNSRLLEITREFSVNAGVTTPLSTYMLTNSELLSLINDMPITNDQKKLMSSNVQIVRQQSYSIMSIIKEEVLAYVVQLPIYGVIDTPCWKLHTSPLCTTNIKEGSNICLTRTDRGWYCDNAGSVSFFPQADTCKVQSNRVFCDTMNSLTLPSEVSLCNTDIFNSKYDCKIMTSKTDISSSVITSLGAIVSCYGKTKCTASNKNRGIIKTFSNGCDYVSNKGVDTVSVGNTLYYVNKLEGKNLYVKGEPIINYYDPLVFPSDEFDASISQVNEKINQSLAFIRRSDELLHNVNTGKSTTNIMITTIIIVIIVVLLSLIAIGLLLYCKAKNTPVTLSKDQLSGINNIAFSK

[2] = target: F-protein of RSV RS Long (Type A prototype) in infected VERO cells (respiratory syncytial virus, Long …, UniProt P12568 26-574); assay: cell-based or functional assay
Chain of F-protein of RSV RS Long (Type A prototype) in infected VERO cells (P12568 26-574): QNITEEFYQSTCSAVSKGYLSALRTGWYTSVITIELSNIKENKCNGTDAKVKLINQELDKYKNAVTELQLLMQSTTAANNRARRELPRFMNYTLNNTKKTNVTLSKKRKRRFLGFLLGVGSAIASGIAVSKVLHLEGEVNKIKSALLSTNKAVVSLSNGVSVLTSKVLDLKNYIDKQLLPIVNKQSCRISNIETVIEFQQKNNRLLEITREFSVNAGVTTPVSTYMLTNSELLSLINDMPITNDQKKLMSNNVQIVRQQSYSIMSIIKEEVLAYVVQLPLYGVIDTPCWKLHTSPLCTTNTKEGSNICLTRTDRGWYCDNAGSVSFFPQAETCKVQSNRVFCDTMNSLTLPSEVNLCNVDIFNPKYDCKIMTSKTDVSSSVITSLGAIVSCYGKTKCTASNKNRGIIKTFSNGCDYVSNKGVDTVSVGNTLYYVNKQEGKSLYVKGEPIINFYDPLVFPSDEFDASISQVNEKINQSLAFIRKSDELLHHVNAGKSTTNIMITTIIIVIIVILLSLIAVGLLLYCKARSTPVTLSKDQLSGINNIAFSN

[3] = target: F-protein of RSV RS 6556 (Type B clinical isolate) in infected VERO cells (respiratory syncytial virus, RS 6556 …); assay: cell-based or functional assay
[4] = target: F-protein of RSV MR 144 (Type A) (respiratory syncytial virus, MR 144 …); assay: cell-based or functional assay
[5] = target: T1, RSV fusion (F) protein, affinity purified from HEp-2 cells infected with the Long strain of RSV (respiratory syncytial virus, Long …, UniProt P12568 26-109; P12568 137-574); assay: titration micro calorimetry, RF-2 and F-protein in solution
T1 construct: mature; also called RSV F-protein; soluble F-protein
T1 sequence (P12568 26-109, chain 1 of 2): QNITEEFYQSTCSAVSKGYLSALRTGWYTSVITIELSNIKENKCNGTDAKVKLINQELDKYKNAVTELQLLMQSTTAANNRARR
T1 sequence (P12568 137-574, chain 2 of 2): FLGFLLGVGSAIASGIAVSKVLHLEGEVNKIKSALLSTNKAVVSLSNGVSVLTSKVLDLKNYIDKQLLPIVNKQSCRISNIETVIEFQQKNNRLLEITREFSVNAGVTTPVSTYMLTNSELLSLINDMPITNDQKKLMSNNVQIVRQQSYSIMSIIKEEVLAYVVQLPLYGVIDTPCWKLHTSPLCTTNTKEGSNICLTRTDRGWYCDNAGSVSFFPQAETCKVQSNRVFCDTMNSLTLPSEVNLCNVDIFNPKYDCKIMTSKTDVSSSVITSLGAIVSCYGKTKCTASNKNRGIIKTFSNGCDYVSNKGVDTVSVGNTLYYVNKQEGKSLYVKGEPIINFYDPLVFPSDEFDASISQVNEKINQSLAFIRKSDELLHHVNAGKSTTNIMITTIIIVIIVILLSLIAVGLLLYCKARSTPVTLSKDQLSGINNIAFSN

[6] = target: T1, RSV fusion (F) protein, affinity …; assay: ELISA, plate coated with purified F-protein, GAH IgG-HRP detection
[7] = target: T1, RSV fusion (F) protein, affinity …; assay: plasmon resonance on an IASYS machine, antibody bound covalently, F-protein in solution

Binder | Infection Neutralization Activity ED50 titer [1] [µg/mL] | Fusion Inhibition activity ED50 titer [2] [µg/mL] | Fusion Inhibition activity ED50 titer [3] [µg/mL] | Infection Neutralization Activity ED50 titer [4] [µg/mL] | Kd [5] [nM] | EC50 [6] [µg/mL] | Kd [7] [nM]
B1 | 0.012 | 3.3 | 0.4 | 0.008 | 2 | 0.001 | –
B2 | 0.03 | 0.66 | 0.04 | 0.03 | – | 0.0006 | ~0.1
